The source of these data is IntAct's records for PubMed 31515488.

Sequences and labels used below:
B1: TBC1 domain family member 7 (Homo sapiens), Q9P0N9 (parent)
chain: MTEDSQRNFRSVYYEKVGFRGVEEKKSLEILLKDDRLDTEKLCTFSQRFPLPSMYRALVWKVLLGILPPHHESHAKVMMYRKEQYLDVLHALKVVRFVSDATPQAEVYLRMYQLESGKLPRSPSFPLEPDDEVFLAIAKAMEEMVEDSVDCYWITRRFVNQLNTKYRDSLPQLPKAFEQYLNLEDGRLLTHLRMCSAAPKLPYDLWFKRCFAGCLPESSLQRVWDKVVSGSCKILVFVAVEILLTFKIKVMALNSAEKITKFLENIPQDSSDAIVSKAIDLWHKHCGTPVHSS
partner: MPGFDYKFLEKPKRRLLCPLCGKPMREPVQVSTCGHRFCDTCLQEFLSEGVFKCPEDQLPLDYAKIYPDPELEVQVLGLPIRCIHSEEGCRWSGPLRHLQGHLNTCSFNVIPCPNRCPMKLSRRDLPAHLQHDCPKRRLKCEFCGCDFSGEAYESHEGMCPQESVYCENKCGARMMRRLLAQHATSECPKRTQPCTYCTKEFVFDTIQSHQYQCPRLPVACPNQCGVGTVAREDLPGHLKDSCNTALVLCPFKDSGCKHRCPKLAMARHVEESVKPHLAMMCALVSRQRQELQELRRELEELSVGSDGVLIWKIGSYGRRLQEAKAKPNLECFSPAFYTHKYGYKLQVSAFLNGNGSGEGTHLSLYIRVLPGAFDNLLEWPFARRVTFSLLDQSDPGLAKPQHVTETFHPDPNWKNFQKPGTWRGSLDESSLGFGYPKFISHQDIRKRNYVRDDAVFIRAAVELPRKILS
B2: Caspase-2 (Homo sapiens), P42575 (parent)
chain: MAAPSAGSWSTFQHKELMAADRGRRILGVCGMHPHHQETLKKNRVVLAKQLLLSELLEHLLEKDIITLEMRELIQAKVGSFSQNVELLNLLPKRGPQAFDAFCEALRETKQGHLEDMLLTTLSGLQHVLPPLSCDYDLSLPFPVCESCPLYKKLRLSTDTVEHSLDNKDGPVCLQVKPCTPEFYQTHFQLAYRLQSRPRGLALVLSNVHFTGEKELEFRSGGDVDHSTLVTLFKLLGYDVHVLCDQTAQEMQEKLQNFAQLPAHRVTDSCIVALLSHGVEGAIYGVDGKLLQLQEVFQLFDNANCPSLQNKPKMFFIQACRGDETDRGVDQQDGKNHAGSPGCEESDAGKEKLPKMRLPTRSDMICGYACLKGTAAMRNTKRGSWYIEALAQVFSERACDMHVADMLVKVNALIKDREGYAPGTEFHRCKEMSEYCSTLCRHLYLFPGHPPT
B3: Ropporin-1A (Homo sapiens), Q9HAT0 (parent)
chain: MAQTDKPTCIPPELPKMLKEFAKAAIRVQPQDLIQWAADYFEALSRGETPPVRERSERVALCNRAELTPELLKILHSQVAGRLIIRAEELAQMWKVVNLPTDLFNSVMNVGRFTEEIEWLKFLALACSALGVTITKTLKIVCEVLSCDHNGGSPRIPFSTFQFLYTYIAKVDGEISASHVSRMLNYMEQEVIGPDGIITVNDFTQNPRVQLE
B4: Tuftelin-interacting protein 11 (Homo sapiens), Q9UBB9 (parent)
chain: MSLSHLYRDGEGRIDDDDDERENFEITDWDLQNEFNPNRQRHWQTKEEATYGVWAERDSDDERPSFGGKRARDYSAPVNFISAGLKKGAAEEAELEDSDDEEKPVKQDDFPKDFGPRKLKTGGNFKPSQKGFAGGTKSFMDFGSWERHTKGIGQKLLQKMGYVPGRGLGKNAQGIINPIEAKQRKGKGAVGAYGSERTTQSMQDFPVVDSEEEAEEEFQKELSQWRKDPSGSKKKPKYSYKTVEELKAKGRISKKLTAPQKELSQVKVIDMTGREQKVYYSYSQISHKHNVPDDGLPLQSQQLPQSGKEAKAPGFALPELEHNLQLLIDLTEQEIIQNDRQLQYERDMVVNLFHELEKMTEVLDHEERVISNLSKVLEMVEECERRMQPDCSNPLTLDECARIFETLQDKYYEEYRMSDRVDLAVAIVYPLMKEYFKEWDPLKDCTYGTEIISKWKSLLENDQLLSHGGQDLSADAFHRLIWEVWMPFVRNIVTQWQPRNCDPMVDFLDSWVHIIPVWILDNILDQLIFPKLQKEVENWNPLTDTVPIHSWIHPWLPLMQARLEPLYSPIRSKLSSALQKWHPSDSSAKLILQPWKDVFTPGSWEAFMVKNIVPKLGMCLGELVINPHQQHMDAFYWVIDWEGMISVSSLVGLLEKHFFPKWLQVLCSWLSNSPNYEEITKWYLGWKSMFSDQVLAHPSVKDKFNEALDIMNRAVSSNVGAYMQPGARENIAYLTHTERRKDFQYEAMQERREAENMAQRGIGVAASSVPMNFKDLIETKAEEHNIVFMPVIGKRHEGKQLYTFGRIVIYIDRGVVFVQGEKTWVPTSLQSLIDMAK
partner: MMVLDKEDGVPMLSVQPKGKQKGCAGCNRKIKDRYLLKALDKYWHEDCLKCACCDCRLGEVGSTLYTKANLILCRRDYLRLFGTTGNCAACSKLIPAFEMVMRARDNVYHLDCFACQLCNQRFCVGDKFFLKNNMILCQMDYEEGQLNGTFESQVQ
B5: Regulator of G-protein signaling 20 (Homo sapiens), O76081 (parent)
chain: MPQLSQDNQECLQKHFSRPSIWTQFLPLFRAQRYNTDIHQITENEGDLRAVPDIKSFPPAQLPDSPAAPKLFGLLSSPLSSLARFFSHLLRRPPPEAPRRRLDFSPLLPALPAARLSRGHEELPGRLSLLLGAALALPGRPSGGRPLRPPHPVAKPREEDATAGQSSPMPQMGSERMEMRKRQMPAAQDTPGAAPGQPGAGSRGSNACCFCWCCCCSCSCLTVRNQEDQRPTIASHELRADLPTWEESPAPTLEEVNAWAQSFDKLMVTPAGRNAFREFLRTEFSEENMLFWMACEELKKEANKNIIEEKARIIYEDYISILSPKEVSLDSRVREVINRNMVEPSQHIFDDAQLQIYTLMHRDSYPRFMNSAVYKDLLQSLSEKSIEA
partner: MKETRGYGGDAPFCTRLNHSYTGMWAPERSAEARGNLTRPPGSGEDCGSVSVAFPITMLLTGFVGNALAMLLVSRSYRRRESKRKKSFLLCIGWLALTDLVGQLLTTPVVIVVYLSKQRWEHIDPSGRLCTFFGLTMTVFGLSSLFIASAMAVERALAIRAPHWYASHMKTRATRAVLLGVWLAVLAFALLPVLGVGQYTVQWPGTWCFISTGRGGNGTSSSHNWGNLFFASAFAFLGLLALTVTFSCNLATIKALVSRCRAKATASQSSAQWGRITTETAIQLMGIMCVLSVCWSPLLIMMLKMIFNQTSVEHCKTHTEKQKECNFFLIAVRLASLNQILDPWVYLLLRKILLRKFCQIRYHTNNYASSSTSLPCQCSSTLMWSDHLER

The variants in the first assay derive from B1. The note with it: with traf4_human TRAF4, Q9BUZ4.
As for L67W, the “effect of a mutation on the interaction” value is reported as “with no effect”.

In another assay the parent is B2. The note with it: with cradd_human CRADD.
As for R265G, the “effect of a mutation on the interaction” value is listed as “with no effect”.

Turning to E388K, the “effect of a mutation on the interaction” value is recorded as “with no effect”. As for G349S, the “effect of a mutation on the interaction” value was “with no effect”. Same read-out and setting: the entry for V29E is “with no effect”; for R155H it is “with no effect”.

In another assay the parent is B3. The note with it: with lnx1_human LNX1, Q8TBB1.
lnx1_human LNX1, Q8TBB1, sequence (Q8TBB1 whole entry): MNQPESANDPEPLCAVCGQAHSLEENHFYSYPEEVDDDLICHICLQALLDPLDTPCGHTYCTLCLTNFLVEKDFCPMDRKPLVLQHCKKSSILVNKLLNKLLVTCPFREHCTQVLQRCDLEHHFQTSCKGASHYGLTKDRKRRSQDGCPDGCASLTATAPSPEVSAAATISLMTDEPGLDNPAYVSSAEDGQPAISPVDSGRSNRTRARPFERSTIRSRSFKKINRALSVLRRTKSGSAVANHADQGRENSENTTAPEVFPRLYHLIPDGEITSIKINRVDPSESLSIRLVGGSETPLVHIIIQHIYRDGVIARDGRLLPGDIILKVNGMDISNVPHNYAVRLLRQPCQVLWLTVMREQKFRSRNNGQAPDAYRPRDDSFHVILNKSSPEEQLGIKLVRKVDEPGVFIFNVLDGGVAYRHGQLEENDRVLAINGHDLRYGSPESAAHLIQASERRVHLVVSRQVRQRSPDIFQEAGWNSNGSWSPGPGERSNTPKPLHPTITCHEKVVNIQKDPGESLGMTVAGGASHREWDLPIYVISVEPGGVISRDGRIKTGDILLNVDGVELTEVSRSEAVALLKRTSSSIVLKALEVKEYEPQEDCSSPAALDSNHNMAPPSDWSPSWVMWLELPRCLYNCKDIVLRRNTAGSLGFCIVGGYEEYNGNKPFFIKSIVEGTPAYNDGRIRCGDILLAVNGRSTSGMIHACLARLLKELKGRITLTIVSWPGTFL
Turning to C62W, the “effect of a mutation on the interaction” value is “with no effect”.

Variants of B3 are the subject of a further assay. The note with it: with hnrl1_human HNRNPUL1, Q9BUJ2.
hnrl1_human HNRNPUL1, Q9BUJ2, sequence (Q9BUJ2 whole entry): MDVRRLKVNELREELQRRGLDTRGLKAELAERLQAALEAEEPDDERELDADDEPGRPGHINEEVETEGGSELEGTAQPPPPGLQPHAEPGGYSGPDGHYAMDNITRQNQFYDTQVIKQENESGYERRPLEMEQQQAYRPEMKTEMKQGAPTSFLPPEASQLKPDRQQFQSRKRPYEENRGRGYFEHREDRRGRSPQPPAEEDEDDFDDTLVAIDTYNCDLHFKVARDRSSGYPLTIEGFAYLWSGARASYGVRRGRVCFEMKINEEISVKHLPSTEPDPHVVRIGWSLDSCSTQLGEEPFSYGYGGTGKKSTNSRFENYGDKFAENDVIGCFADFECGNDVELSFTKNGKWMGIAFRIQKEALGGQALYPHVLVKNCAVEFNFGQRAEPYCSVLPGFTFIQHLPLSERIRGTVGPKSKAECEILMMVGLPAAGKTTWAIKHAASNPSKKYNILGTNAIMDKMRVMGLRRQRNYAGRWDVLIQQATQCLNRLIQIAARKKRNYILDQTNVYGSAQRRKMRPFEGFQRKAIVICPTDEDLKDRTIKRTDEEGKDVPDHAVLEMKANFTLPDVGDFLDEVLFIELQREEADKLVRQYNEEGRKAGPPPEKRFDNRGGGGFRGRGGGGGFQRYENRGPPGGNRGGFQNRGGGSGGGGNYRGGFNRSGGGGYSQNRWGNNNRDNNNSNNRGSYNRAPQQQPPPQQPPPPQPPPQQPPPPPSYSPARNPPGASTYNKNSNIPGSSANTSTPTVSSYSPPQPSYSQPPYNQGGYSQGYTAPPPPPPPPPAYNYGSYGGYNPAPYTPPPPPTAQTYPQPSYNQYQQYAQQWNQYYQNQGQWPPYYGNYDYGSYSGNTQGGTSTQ
C62W: the “effect of a mutation on the interaction” value is given as “with no effect”.

A further assay covers variants of B3. To be noted: with aapk1_human PRKAA1, Q13131.
aapk1_human PRKAA1, Q13131, sequence (Q13131 whole entry, looked up): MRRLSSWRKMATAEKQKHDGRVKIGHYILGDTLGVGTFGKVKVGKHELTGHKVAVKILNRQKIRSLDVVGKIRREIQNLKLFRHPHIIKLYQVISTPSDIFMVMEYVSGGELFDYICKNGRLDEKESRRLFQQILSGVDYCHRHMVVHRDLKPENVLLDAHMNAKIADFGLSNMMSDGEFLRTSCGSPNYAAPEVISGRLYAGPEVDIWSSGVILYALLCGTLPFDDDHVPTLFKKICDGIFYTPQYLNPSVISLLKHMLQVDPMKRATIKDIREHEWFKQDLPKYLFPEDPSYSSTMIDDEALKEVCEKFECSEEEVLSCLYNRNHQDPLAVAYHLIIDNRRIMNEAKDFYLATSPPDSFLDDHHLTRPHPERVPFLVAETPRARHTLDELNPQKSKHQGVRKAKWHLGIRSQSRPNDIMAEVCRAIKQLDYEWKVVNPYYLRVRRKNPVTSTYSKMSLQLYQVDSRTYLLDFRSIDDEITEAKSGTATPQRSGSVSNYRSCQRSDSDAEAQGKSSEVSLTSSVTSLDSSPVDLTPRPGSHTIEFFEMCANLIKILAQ
For C62W, the “effect of a mutation on the interaction” value was “with no effect”.

Variants of B4 are the subject of a further assay. The note with it: with rbtn1_human LMO1, P25800.
As for S688L, the “effect of a mutation on the interaction” value was “with no effect”. As to R8Q, the “effect of a mutation on the interaction” value was “with no effect”.

In the next assay the parent is B5. The note with it: with pe2r3_human PTGER3, P43115.
Regarding H347Y, the “effect of a mutation on the interaction” value was “with no effect”.
